PMC4403821

B1: ORF74-Rluc8 [Kaposi's sarcoma-associated herpesvirus (KSHV)] / β-arrestin1-eYFP [not stated] (parent)
chain 1: MGDKGTRVFKKASPNGKLTVYLGKRDFVDHIDLVDPVDGVVLVDPEYLKERRVYVTLTCAFRYGREDLDVLGLTFRKDLFVANVQSFPPAPEDKKPLTRLQERLIKKLGEHAYPFTFEIPPNLPCSVTLQPGPEDTGKACGVDYEVKAFCAENLEEKIHKRNSVRLVIRKVQYAPERPGPQPTAETTRQFLMSDKPLHLEASLDKEIYYHGEPISVNVHVTNNTNKTVKKIKISVRQYADICLFNTAQYKCPVAMEEADDTVAPSSTFCKVYTLTPFLANNREKRGLALDGKLKHEDTNLASSTLLREGANREILGIIVSYKVKVKLVVSRGGLLGDLASSDVAVELPFTLMHPKPKEEPPHREVPENETPVDTNLIELDTNDDDIVFEDFARQRLKGMKDDKEEEEDGTGSPQLNNR
chain 2: MAAEDFLTIFLDDDESWNETLNMSGYDYSGNFSLEVSVCEMTTVVPYTWNVGILSLIFLINVLGNGLVTYIFCKHRSRAGAIDILLLGICLNSLCLSISLLAEVLMFLFPNIISTGLCRLEIFFYYLYVYLDIFSVVCVSLVRYLLVAYSTRSWPKKQSLGWVLTSAALLIALVLSGDACRHRSRVVDPVSKQAMCYENAGNMTADWRLHVRTVSVTAGFLLPLALLILFYALTWCVVRRTKLQARRKVRGVIVAVVLLFFVFCFPYHVLNLLDTLLRRRWIRDSCYTRGLINVGLAVTSLLQALYSAVVPLIYSCLGSLFRQRMYGLFQSLRQSFMSGATT

Variants of: B1
Test: BRET
Details: with β-arrestin1-eYFP; 300 nM CXCL1 (black bar); vehicle bar ~1.00; parent: 1.14; read off a plot

Row | Variant | response [fold basal]
1 | chain 2 S315A S319A S331A S335A S338A T341A T342A | 1
